Results published in patent US20250144228A1, “NANOBODY-DRUG ADDUCTS AND USES THEREOF” (priority 2022, published 2025).

B1: VHHkappa: commercially available anti-mouse kappa chain VHH (nanobody clone TP1170), SEQ ID NO: 1 (protein)
VHH: QVQLVESGGGWVQPGGSLRLSCAASGFTFSDTAMMWVRQAPGKGREWVAAIDTGGGYTYYADSVKGRFTISRDNAKNTLYLQMNSLKPEDTARYYCAKTYSGNYYSNYTVANYGTTGRGTLVTVSSGG
B2: Anti-p83 B4: VHH specific for P. falciparum MSP-1 p83, SEQ ID NO: 12 (protein)
VHH: QLQLVESGGGLAQAGGSLRLSCAASGRTSSTKPMGWFRQAPGLEREFVASISWLGGSTLYSDSVKGRFTISRDNAKNTVYLQMNSLKSEDTAVYYCAGGTSAYSGRDSSRYEYWGQGTQVTVSSLPETGGHHHHHH

Legend:
[1] = biological target: mouse IgG2b (Mus musculus, UniProt P01837); format: binding; conditions: mouse IgG2b-coated ELISA plates
[2] = system: PfMSP-1 subunits, full length p190 pro-peptide; format: binding, Plasmodium falciparum
Method: (§1) FIG. 13A: Schematic of the PfMSP-1 pro-peptide and the four inclusive subunits: p83, p30, p38, and p42. FIG. 13B: Purified anti-p84 B4, anti-p38 B8, anti-p42 A6, and anti-p42 G11 VHHs were biotinylated and these VHHs were incubated with plate bound subunits proteins as indicated. Binding ELISA was detected by using streptavidin-HRP and tetramethylbenzidine (TMB). Data are represented as optical density (OD). Error bars show SEM. FIG. 13C: Western blot of VHHs against the three PfMSP-1 subunits, the full length p190 pro-peptide, and some 3D7 lysates from −38-44 hour 3D7 schizonts. FIG. 13D: Flow cytometry on synchronized ˜38-44 hour 3D7 schizonts using fluorescently (Cy5) labeled VHHs.
(§2) Purified VHH nanobodies were biotinylated and tested for specificity toward isolated MSP-1 subunits. Anti-p83 B4, anti-p38 B8, anti-p42 A6, and anti-p42 G11 VHHs were each incubated with plate-bound p83, p38, p42, and p42, and binding to the plates was detected by an enzyme-linked immunoassay (ELISA) using streptavidin-horseradish peroxidase (HRP) and tetramethylbenzidine (TMB). […] Finally, purified VHHs were tested against live ˜38-44 hour 3D7 schizonts in a flow cytometry assay.

[3] = biological target: T1, PfMSP-1 subunits, full length p190 pro-peptide (Plasmodium falciparum, UniProt Q8I0U8); format: binding
T1 construct: the three PfMSP-1 subunits, the full length p190 pro-peptide
Method: as §1, §2

[4] = system: P. falciparum merozoite surface protein 1 (MSP-1) subunits p83, p38, p42; assay: ELISA of biotinylated VHHs on plate-bound MSP-1 subunits; format: binding, Plasmodium falciparum; conditions: streptavidin-HRP and TMB
Method: as §1, with “FIGS. 13A-13D: VHH nanobodies bind specifically to Plasmodium falciparum: merozoite surface protein 1 (MSP-1). FIG. 13A:” for “FIG. 13A:”
as §2

T1 sequence (Q8I0U8 20-1699): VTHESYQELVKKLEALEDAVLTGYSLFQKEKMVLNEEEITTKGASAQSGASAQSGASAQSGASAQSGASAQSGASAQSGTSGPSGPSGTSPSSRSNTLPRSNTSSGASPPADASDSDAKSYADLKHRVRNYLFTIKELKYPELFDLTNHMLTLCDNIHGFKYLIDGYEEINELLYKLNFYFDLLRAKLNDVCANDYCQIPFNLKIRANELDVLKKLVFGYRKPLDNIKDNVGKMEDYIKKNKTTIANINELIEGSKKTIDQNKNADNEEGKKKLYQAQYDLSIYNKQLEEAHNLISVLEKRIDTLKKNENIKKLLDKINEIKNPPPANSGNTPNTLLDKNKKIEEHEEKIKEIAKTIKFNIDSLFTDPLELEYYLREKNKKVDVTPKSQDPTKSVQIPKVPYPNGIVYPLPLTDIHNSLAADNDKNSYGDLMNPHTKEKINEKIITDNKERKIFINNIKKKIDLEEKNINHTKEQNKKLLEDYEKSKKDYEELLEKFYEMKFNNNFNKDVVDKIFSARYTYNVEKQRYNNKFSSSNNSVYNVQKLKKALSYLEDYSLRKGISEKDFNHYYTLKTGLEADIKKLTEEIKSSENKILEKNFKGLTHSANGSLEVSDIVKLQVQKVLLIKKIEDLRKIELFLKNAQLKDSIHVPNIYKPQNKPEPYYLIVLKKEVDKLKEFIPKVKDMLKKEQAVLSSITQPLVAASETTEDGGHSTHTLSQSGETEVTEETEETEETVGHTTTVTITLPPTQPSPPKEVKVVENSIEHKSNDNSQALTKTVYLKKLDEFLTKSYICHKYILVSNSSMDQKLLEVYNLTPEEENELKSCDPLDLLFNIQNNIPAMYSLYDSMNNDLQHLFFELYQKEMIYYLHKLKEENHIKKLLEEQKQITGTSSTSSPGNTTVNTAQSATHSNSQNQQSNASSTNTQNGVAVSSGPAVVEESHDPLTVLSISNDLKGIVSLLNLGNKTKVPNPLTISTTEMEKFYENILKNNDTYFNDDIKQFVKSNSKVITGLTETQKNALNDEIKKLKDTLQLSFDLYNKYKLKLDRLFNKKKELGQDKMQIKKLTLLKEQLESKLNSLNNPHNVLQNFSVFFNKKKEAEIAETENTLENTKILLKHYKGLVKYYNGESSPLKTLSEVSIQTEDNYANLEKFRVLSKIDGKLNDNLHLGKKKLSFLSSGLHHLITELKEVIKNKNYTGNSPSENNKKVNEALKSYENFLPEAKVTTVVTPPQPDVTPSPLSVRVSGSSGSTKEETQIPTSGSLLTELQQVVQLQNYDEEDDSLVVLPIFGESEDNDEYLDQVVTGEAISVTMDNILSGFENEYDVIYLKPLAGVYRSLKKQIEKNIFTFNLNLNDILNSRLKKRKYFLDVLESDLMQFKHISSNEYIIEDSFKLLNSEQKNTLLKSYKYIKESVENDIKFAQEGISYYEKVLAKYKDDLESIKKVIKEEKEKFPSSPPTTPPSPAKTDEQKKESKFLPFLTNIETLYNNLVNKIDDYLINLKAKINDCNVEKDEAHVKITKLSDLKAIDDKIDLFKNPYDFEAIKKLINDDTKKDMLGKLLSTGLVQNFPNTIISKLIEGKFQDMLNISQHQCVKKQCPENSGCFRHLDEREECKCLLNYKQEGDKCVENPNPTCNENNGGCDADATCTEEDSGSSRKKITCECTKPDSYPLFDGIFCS

| Molecule | binding to mouse IgG2b (in words) [1] | binding to MSP-1 subunits and pro-peptide p190 (gel electrophoresis / Western blot) [2] | binding to lysate from ˜38-44 hour 3D7 schizonts [3] | binding to plate-bound MSP-1 subunits (ELISA) [4] |
| --- | --- | --- | --- | --- |
| B1 | nanomolar affinity |  |  |  |
| B2 |  | bind to one subunit of MSP-1 and to the MSP-1 pro-peptide (p190), but not to any other subunit | observed to bind | bind specifically to one subunit |
